Test results from publication PMC9097884 (2022).

Target: SARS-CoV-2 S1 (residues 1-682, Wuhan-Hu-1) (SARS-CoV-2 (Wuhan-Hu-1 strain), UniProt P0DTC2 14-682)
Test: BLI

B1: 87G7 human monoclonal antibody (recombinant human IgG1/kappa) (antibody, V domains shown)
VH: EVQLLESGGGLVQPGGSLRLSCVASGFTFSSYVMSWVRQAPGKGLEWVAAISGSGGNTYYADSVKGRFTISRDNSKNTLYLQMNSLRAEDTAVYYCAKEGTYYYGSGSFWGQGTLVTVSS
VL: EIVLTQSPATLSLSPGERATLSCRASQSFHNYLAWYQQKPGRAPRLLIFDASNRATGIPARFSGSGSGTDFTLTISSLEPEDFAVYYCQQRFNWPLTFGGGTKVEIK
Kd: 2.89 nM
